From patent US6127144, “Method for expression of proteins in bacterial host cells” (Cangene Corporation, dated 2000)
Values belong to the molecule of their own block, whether it stands above or below them. No end group written: not given here. *: point of attachment. CH2Cl = ClC*

Tests used:
[1] = molecular target: Boc-APARSPA-bNA
[2] = molecular target: APA-bNA
[3] = molecular target: tripeptidyl aminopeptidase-S (Tap) of Streptomyces lividans 66 (Streptomyces lividans 66)
[4] = molecular target: T1, tripeptidyl aminopeptidase-S (Tap) of Streptomyces lividans 66 (Streptomyces lividans 66); test: inactivation kinetics of purified Tap on ice, residual activity with APA-pNA (Example 8)
T1 chain: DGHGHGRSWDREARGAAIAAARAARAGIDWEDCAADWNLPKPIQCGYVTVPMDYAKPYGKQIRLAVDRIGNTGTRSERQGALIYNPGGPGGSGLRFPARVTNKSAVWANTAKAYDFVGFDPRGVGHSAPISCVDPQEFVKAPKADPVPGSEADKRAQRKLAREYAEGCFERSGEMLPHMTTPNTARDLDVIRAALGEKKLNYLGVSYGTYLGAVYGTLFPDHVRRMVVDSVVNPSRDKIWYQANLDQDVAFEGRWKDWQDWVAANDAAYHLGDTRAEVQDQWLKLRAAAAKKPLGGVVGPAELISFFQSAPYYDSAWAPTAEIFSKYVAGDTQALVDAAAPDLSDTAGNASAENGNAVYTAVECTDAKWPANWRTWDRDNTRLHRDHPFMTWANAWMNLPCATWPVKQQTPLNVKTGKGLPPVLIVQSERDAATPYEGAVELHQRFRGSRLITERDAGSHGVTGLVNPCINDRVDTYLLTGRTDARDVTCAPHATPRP
Description: A stock solution of 1.1 uM Tap in 50 mM Tris-HCl, pH 8.0 was prepared. APACMK stock solutions of 11 uM, 13.8 uM, 17.3 uM, 21.7 uM, 27.0 uM, 54.0 uM, 108 uM, and 1.08 mM were prepared. The Substrate Solution was 50 mM Tris-HCl, pH 8.0, 0.8 mM APA-pNA. The inactivation was performed by placing 90 ul of Tap […] in a 1.5 ml Eppendorf tube on ice and adding 10 ul of water (uninhibited control) or 10 ul of APACMK. A 10 ul aliquot was removed immediately and was assayed by adding it to a cuvette containing 390 ul Substrate Solution at 22° C. The initial velocity was obtained from the change in absorbance at 405 nm during the first 10 seconds of the assay. Additional aliquots were removed at time points and assayed by the same method. At APACMK concentrations greater than 5.0 uM in the incubation, it was not possible to remove an aliquot from the incubation before 90% inactivation occurred.

[5] = molecular target: T2, D-phenylalanyl-L-prolyl-L-arginine beta-napthylamide
T2 sequence (peptide, D-phenylalanine at position 1; C-terminal beta-naphthylamide): FPR

[6] = molecular target: T3, GPM-bNA
T3 sequence (peptide, C-terminal beta-naphthylamide): GPM

[7] = molecular target: T4, L-alanyl-L-prolyl-L-phenylalanine beta-naphthylamide
T4 sequence (peptide, C-terminal beta-naphthylamide): APF

A540, Boc-APARSPA-bNA assay on 20 µl cell-free broth [1]: 0.084 A540
Molecule: soluble SlpE secreted from AP6.SlpE (enzyme)

inactivation of Tap, residual activity assayed with APA-pNA [3]: > 99% | kinact [3]: 0.14 min⁻¹ | Ki [4]: 3.3 µM
B1: L-alanyl-L-prolyl-L-alanine chloromethylketone (peptide)
peptide: Ala-Pro-Ala-CH2Cl
modifications: also: hydrochloride salt

Continued, molecule first:

Molecule: soluble SlpD secreted from AP6.SlpD (enzyme)
A405, APA-bNA assay on 20 µl cell-free broth [2]: 1.15 A405 | A540, Boc-APARSPA-bNA assay on 20 µl cell-free broth [1]: 0.278 A540

B2: tripeptidyl aminopeptidase-S (Tap) of Streptomyces lividans 66 (enzyme)
chain: DGHGHGRSWDREARGAAIAAARAARAGIDWEDCAADWNLPKPIQCGYVTVPMDYAKPYGKQIRLAVDRIGNTGTRSERQGALIYNPGGPGGSGLRFPARVTNKSAVWANTAKAYDFVGFDPRGVGHSAPISCVDPQEFVKAPKADPVPGSEADKRAQRKLAREYAEGCFERSGEMLPHMTTPNTARDLDVIRAALGEKKLNYLGVSYGTYLGAVYGTLFPDHVRRMVVDSVVNPSRDKIWYQANLDQDVAFEGRWKDWQDWVAANDAAYHLGDTRAEVQDQWLKLRAAAAKKPLGGVVGPAELISFFQSAPYYDSAWAPTAEIFSKYVAGDTQALVDAAAPDLSDTAGNASAENGNAVYTAVECTDAKWPANWRTWDRDNTRLHRDHPFMTWANAWMNLPCATWPVKQQTPLNVKTGKGLPPVLIVQSERDAATPYEGAVELHQRFRGSRLITERDAGSHGVTGLVNPCINDRVDTYLLTGRTDARDVTCAPHATPRP
Tripeptidyl Aminopeptidase Activity (A540 above background) (A540 above background) [5]: 0.02 | Tripeptidyl Aminopeptidase Activity (A540 above background) (A540 above background) [6]: > 3 | Tripeptidyl Aminopeptidase Activity (A540 above background) (A540 above background) [7]: > 3
